T1: human IL-18Rβ (human, UniProt O95256 20-356, limits assumed)
T1 construct: Monomeric antigen injected in SPR; also called IL-18R beta; IL-18Rb
T1 sequence: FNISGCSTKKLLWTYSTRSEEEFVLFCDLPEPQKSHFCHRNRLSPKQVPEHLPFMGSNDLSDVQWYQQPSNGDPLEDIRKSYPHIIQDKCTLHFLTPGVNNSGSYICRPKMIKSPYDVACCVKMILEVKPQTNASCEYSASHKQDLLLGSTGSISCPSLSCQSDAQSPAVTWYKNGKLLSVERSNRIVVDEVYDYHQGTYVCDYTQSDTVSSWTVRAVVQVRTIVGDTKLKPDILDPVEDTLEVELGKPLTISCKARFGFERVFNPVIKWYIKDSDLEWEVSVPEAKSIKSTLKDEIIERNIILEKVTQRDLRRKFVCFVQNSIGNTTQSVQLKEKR

T2: cynomolgus IL-18Rα (cynomolgus, UniProt A0A2K5V3J9 19-328)
T2 construct: also called Cyno IL-18Rα; non-human primate IL-18Rα
T2 sequence: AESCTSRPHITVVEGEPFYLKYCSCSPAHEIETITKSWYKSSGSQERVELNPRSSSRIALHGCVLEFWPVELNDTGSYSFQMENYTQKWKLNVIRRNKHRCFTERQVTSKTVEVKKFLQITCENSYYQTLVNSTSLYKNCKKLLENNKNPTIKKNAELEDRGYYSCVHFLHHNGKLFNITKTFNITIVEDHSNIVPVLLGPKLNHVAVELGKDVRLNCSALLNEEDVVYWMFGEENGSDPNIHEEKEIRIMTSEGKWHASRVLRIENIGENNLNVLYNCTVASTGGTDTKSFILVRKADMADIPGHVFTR

T3: human IL-18Rα (human, UniProt Q13478 19-329, limits assumed)
T3 construct: Monomeric antigen injected in SPR; also called huIL18Ra; IL-18R alpha
T3 sequence: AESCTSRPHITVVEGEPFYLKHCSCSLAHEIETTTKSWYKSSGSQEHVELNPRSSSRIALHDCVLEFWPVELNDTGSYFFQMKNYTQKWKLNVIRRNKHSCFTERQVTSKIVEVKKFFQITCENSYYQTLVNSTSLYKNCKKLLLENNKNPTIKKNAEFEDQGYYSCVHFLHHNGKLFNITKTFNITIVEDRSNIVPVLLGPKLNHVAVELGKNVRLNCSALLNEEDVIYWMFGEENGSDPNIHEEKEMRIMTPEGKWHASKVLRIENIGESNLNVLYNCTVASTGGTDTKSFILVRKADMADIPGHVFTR

T4: IL-18 receptor (IL-18Rα/IL-18Rβ) overexpressed on HEK-Blue IL-18 cells (Homo sapiens (Human), UniProt Q13478 19-541; O95256 20-599)
T4 sequence 1: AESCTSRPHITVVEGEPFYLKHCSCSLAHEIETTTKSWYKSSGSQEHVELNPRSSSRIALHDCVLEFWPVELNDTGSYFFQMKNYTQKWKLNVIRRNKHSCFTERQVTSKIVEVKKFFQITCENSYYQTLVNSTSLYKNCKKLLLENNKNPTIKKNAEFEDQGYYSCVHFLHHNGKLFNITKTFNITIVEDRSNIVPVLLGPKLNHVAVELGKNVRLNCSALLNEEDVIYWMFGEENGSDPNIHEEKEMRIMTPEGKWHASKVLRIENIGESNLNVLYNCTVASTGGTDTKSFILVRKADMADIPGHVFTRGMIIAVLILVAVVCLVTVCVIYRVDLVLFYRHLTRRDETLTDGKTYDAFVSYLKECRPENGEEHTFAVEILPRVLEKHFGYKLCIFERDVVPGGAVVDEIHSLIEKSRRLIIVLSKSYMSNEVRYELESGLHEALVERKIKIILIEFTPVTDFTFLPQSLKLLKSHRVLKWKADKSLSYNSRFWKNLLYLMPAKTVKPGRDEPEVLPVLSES
T4 sequence 2: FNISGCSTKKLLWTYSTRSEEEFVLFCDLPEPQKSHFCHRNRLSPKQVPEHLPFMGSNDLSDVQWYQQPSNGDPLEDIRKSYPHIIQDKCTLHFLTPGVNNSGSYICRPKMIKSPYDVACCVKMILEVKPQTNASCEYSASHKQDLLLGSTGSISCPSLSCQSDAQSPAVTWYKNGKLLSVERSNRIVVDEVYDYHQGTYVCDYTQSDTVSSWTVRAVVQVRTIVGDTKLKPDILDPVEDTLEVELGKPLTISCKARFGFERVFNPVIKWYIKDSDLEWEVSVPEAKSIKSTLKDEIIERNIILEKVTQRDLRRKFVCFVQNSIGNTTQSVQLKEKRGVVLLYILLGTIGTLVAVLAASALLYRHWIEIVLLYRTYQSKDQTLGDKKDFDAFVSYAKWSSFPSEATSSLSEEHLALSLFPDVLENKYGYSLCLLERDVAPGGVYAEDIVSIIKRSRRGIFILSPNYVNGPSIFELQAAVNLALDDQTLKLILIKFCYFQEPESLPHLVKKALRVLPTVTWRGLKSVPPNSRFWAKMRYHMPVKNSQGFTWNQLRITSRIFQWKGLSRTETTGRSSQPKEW

B1: VHH505 (VHH)
VHH: QLQLVESGGGLVQAGGSLRLSCAASRSITFSHNVMGWYRQAPGKQRELVASIGSGGSTNYVDSVKGRATISRDNAKKTVYLQMNSLKPEDTAVYYCGVVVGVYRGSLGQGTQVTVSS
notes: also called VHH505_beta
B2: VHH363 (VHH)
VHH: QVQLVESGGGLVQAGGSLRLSCAASGRTFSSYTMGWFRQAPGKEREFVAAISWSAGRTYYADSVKGRFTISRDNAKNTVYLQMNSLKPEDTAVYFCAAEEAPDWAPIDCSGYGCLSLYDYWGQGTQVTVSS
notes: also called VHH363_alpha
B3: VHH285 (VHH)
VHH: QVQLVESGGGLVQAGGSLRLSCAASGRTFSKHAMGWFRQAPGKEREFVAAIDWSGGSTYYADSVKGRFTISRDNAKNTVYLQMDSLKPEDTAVYYCAADSYTDYAQLWLPELESEYDYWGQGTQVTVSS
notes: also called VHH285_alpha
B4: DGL174 (bispecific antibody)
heavy 1: EVQLVESGGGLVQAGGSLRLSCAASGSISSRDTMGWYRQAPGKQREMVAVISSSGNTNYADSVLGRFTISRDNAKNTVDLQMNSLKPEDTAIYKCYAHRTYGVDYWGKGTLVTVSSGGGSQVQLVESGGGLVQAGGSLRLSCAASGRTFSSYTMGWFRQAPGKEREFVAAISWSAGRTYYADSVKGRFTISRDNAKNTVYLQMNSLKPEDTAVYFCAAEEAPDWAPIDCSGYGCLSLYDYWGQGTQVTVSSDKTHTCPPCPAPEAAGGPSVFLFPPKPKDTLMISRTPEVTCVVVDVSHEDPEVKFNWYVDGVEVHNAKTKPREEQYNSTYRVVSVLTVLHQDWLNGKEYKCKVSNKALPAPIEKTISKAKGQPREPQVCTLPPSRDELTKNQVSLSCAVKGFYPSDIAVEWESNGQPENNYKTTPPVLDSDGSFFLVSKLTVDKSRWQQGNVFSCSVMHEALHNHYTQKSLSLSPG
heavy 2: not shown
B5: DGL175 (bispecific antibody)
heavy 1: QLQLVESGGGLVQAGGSLRLSCAASRSITFSHNVMGWYRQAPGKQRELVASIGSGGSTNYVDSVKGRATISRDNAKKTVYLQMNSLKPEDTAVYYCGVVVGVYRGSLGQGTQVTVSSGGGSQVQLQESGGGLVQAGGSLRLSCQASGSIATINGMRWWRQAPGKERELVATINSGGSSNYADSVKGRFTISRDNASHTVSLQMNSLKPEDTAVYYCNLYVYSQFPPFSVDDYWGQGARVTVSSDKTHTCPPCPAPEAAGGPSVFLFPPKPKDTLMISRTPEVTCVVVDVSHEDPEVKFNWYVDGVEVHNAKTKPREEQYNSTYRVVSVLTVLHQDWLNGKEYKCKVSNKALPAPIEKTISKAKGQPREPQVCTLPPSRDELTKNQVSLSCAVKGFYPSDIAVEWESNGQPENNYKTTPPVLDSDGSFFLVSKLTVDKSRWQQGNVFSCSVMHEALHNHYTQKSLSLSPG
heavy 2: not shown
B6: DGL171 (bispecific antibody)
heavy 1: EVQLVESGGGLVQAGGSLRLSCAASGSISSRDTMGWYRQAPGKQREMVAVISSSGNTNYADSVLGRFTISRDNAKNTVDLQMNSLKPEDTAIYKCYAHRTYGVDYWGKGTLVTVSSDKGPSVFPLAPEPKSSQVQLVESGGGLVQAGGSLRLSCAASGRTFSSYTMGWFRQAPGKEREFVAAISWSAGRTYYADSVKGRFTISRDNAKNTVYLQMNSLKPEDTAVYFCAAEEAPDWAPIDCSGYGCLSLYDYWGQGTQVTVSSDKTHTCPPCPAPEAAGGPSVFLFPPKPKDTLMISRTPEVTCVVVDVSHEDPEVKFNWYVDGVEVHNAKTKPREEQYNSTYRVVSVLTVLHQDWLNGKEYKCKVSNKALPAPIEKTISKAKGQPREPQVCTLPPSRDELTKNQVSLSCAVKGFYPSDIAVEWESNGQPENNYKTTPPVLDSDGSFFLVSKLTVDKSRWQQGNVFSCSVMHEALHNHYTQKSLSLSPG
heavy 2: not shown
B7: DGL173 (bispecific antibody)
heavy 1: QVQLVESGGGLVQAGGSLRLSCVASGTFFQIHVMGWYRQAPGKQRELVAFIINNGGTRYADSVKGRFTISRDYAKNTVYLQMNSLKPEDTAVYYCNTEGTYRGRYSTDNWGQGTQVTVSSGGGSQVQLVESGGGLVQAGGSLRLSCAASGRTFSKHAMGWFRQAPGKEREFVAAIDWSGGSTYYADSVKGRFTISRDNAKNTVYLQMDSLKPEDTAVYYCAADSYTDYAQLWLPELESEYDYWGQGTQVTVSSDKTHTCPPCPAPEAAGGPSVFLFPPKPKDTLMISRTPEVTCVVVDVSHEDPEVKFNWYVDGVEVHNAKTKPREEQYNSTYRVVSVLTVLHQDWLNGKEYKCKVSNKALPAPIEKTISKAKGQPREPQVCTLPPSRDELTKNQVSLSCAVKGFYPSDIAVEWESNGQPENNYKTTPPVLDSDGSFFLVSKLTVDKSRWQQGNVFSCSVMHEALHNHYTQKSLSLSPG
heavy 2: not shown
B8: DGL172 (bispecific antibody)
heavy 1: QLQLVESGGGLVQAGGSLRLSCAASRSITFSHNVMGWYRQAPGKQRELVASIGSGGSTNYVDSVKGRATISRDNAKKTVYLQMNSLKPEDTAVYYCGVVVGVYRGSLGQGTQVTVSSDKGPSVFPLAPEPKSSQVQLQESGGGLVQAGGSLRLSCQASGSIATINGMRWWRQAPGKERELVATINSGGSSNYADSVKGRFTISRDNASHTVSLQMNSLKPEDTAVYYCNLYVYSQFPPFSVDDYWGQGARVTVSSDKTHTCPPCPAPEAAGGPSVFLFPPKPKDTLMISRTPEVTCVVVDVSHEDPEVKFNWYVDGVEVHNAKTKPREEQYNSTYRVVSVLTVLHQDWLNGKEYKCKVSNKALPAPIEKTISKAKGQPREPQVCTLPPSRDELTKNQVSLSCAVKGFYPSDIAVEWESNGQPENNYKTTPPVLDSDGSFFLVSKLTVDKSRWQQGNVFSCSVMHEALHNHYTQKSLSLSPG
heavy 2: not shown

Each binder was assayed against T1, human IL-18Rβ (assay: SPR (Carterra LSA), antibody captured on anti-human IgG-Fc, monomeric antigen as analyte, 25 C).
Protocol: (§1) SPR experiments were performed using Carterra LSA equipped with an HC30M chip (Carterra-Bio). Binding assays were carried out at 25° C. with HBSTE (10 mM HEPES ph7.4, 150 mM NaCl, 3 mM EDTA, 0.05% Tween-20) with 0.5 g/L BSA. A density of anti-human IgG-Fc capture lawn was established on an HC30M chip using amine coupling. […] Coupling of goat anti-human IgG (H+L) multi-species SP ads-UNLB (Southern Biotech, 2087-01) with standard immobilization was done for 15 minutes in 10 mM sodium acetate pH 4.5 and quenched using 1M ethanolamine HCl PH8.5. The anti-human IgG-Fc capture surface was then used to capture a panel of antibodies at 20 μg/mL. Monomeric antigen for human IL-18Rα, human IL-18Rβ, cynomolgus IL-18Rα, or rhesus IL-18Rβ targeted by the antibodies was injected over the captured antibody array at 6 concentrations in 4-fold dilution series starting at 500 nM. Binding data was referenced and blanked from a buffer injected, then globally fit to a 1:1 Langmuir binding model for estimation of ka, kd, and KD using Carterra Kinetics Software.

Row | Kd [nM] | Binder
1 | 1.6 | B1

The binders below were run against T2, cynomolgus IL-18Rα in the same assay as above.
Protocol: as §1

Row | Kd [nM] | Binder
2 | 95 | B2
3 | 14 | B3

The binders below were run against T3, human IL-18Rα in the same assay as above.
Protocol: as §1

Row | Kd [nM] | Binder
4 | 34 | B2
5 | 15 | B3

These binders were tested against T4, IL-18 receptor (IL-18Rα/IL-18Rβ) … (assay: cell-based or functional assay).

Row | HEK-Blue IL-18: Abs 405 [Abs] | HEK-Blue IL-18: Fold over Background [fold] | Binder
6 | 1.14 | 9.5 | B4
7 | 1.1 | 9.1 | B5
8 | 0.53 | 4.3 | B6
9 | 0.59 | 4.9 | B7
10 | 1.02 | 8.5 | B8

Reference: US20240209100A1 (DIAGONAL THERAPEUTICS, published 2024)
